Source: patent US20230355708A1 (DREXEL UNIVERSITY, published 2023)

Target: SARS-CoV-2 spike S2 subunit (SARS-CoV-2, UniProt P0DTC2 686-1213)
Assay: SPR, S2 anchored on low dextran chip, CVN injected at increasing concentrations

B1: Cyanovirin-N (CV-N) (other)
chain: LGKFSQTCYNSAIQGSVLTSTCERTNGGYNTSSIDLNSVIENVDGSLKWQPSNFIETCRNTQLAGSSELAAECKTRAQQFVSTKINLDDHIANIDGTLKYE
B1: binds.
